Experimental data taken from US20120003214A1.

Legend:
[1] = target: apical membrane antigen-1 (AMA1) of Plasmodium falciparum, strain 3D7 (Plasmodium falciparum); experiment: protein bioarray
[2] = target: apical membrane antigen-1 (AMA1) of Plasmodium falciparum, strain 3D7 (Plasmodium falciparum); experiment: biosensor, purified proteins
[3] = target: apical membrane antigen-1 (AMA1) of Plasmodium falciparum, strain 3D7 (Plasmodium falciparum); experiment: ELISA, biosensor and protein bioarray
[4] = target: apical membrane antigen-1 (AMA1) of Plasmodium falciparum, strain 3D7 (Plasmodium falciparum); experiment: not stated (screen of a random mutagenesis library against AMA1)

Kd [1]	fold better affinity than 12Y-2 [2]	fold better affinity than 14M-15 [3]	Binder	fold enhanced affinity over the wild type 12Y-2 [4]
2.6 nM	20 fold	2 fold	VNAR 22A-2 (12Y-2 Thr39Ser; Pro90Leu) (VNAR) VNAR: AWVDQTPRTATKETGESLTINCVLRDASFELKDTGWYRSKLGSTNEQSISIGGRYVETVNKGSKSFSLRISDLRVEDSGTYKCQAFYSLLLGDYNYSLLFRGEKGAGTALTVK	–
–	–	–	VNAR 14M-8 (12Y-2 Phe100Leu) (VNAR) VNAR: AWVDQTPRTATKETGESLTINCVLRDASFELKDTGWYRTKLGSTNEQSISIGGRYVETVNKGSKSFSLRISDLRVEDSGTYKCQAFYSLPLGDYNYSLLLRGEKGAGTALTVK	10 fold
6.5 nM	–	–	VNAR 14M-15 (12Y-2 Pro90Leu variant) (VNAR) VNAR: AWVDQTPRTATKETGESLTINCVLRDASFELKDTGWYRTKLGSTNEQSISIGGRYVETVNKGSKSFSLRISDLRVEDSGTYKCQAFYSLLLGDYNYSLLFRGEKGAGTALTVK	10 fold
